Reference: patent publication US20060063208A1 (GENERAL HOSPITAL, published 2006)

Target: T1, DRAGON-Fc fusion protein (DRAGON without its GPI anchor fused to the Fc portion of human IgG) (mouse; human, UniProt Q7TQ33 49-415, limits assumed)
T1 construct: Purified from stably transfected HEK293 cells; also called soluble DRAGON; not shown: Fc portion of the human IgG (vector pIgplus, R&D Systems)
T1 sequence: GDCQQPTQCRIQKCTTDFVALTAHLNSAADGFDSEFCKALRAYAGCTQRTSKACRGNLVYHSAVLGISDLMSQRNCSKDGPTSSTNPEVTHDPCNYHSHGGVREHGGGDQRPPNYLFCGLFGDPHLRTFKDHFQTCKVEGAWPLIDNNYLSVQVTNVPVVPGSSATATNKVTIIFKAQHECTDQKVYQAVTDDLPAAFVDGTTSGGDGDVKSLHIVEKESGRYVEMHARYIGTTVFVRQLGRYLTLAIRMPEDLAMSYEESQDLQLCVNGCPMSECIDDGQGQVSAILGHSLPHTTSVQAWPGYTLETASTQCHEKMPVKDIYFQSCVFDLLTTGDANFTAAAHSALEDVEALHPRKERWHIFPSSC
Test: DRAGON-Fc with [125I]-BMP2 and increasing unlabeled BMP2, capture on protein A plates

- Kd: 1.5 nM
B1: BMP-2 (ligand, human, UniProt P12643 283-396, looked up)
chain: QAKHKQRKRLKSSCKRHPLYVDFSDVGWNDWIVAPPGYHAFYCHGECPFPLADHLNSTNHAIVQTLVNSVNSKIPKACCVPTELSAISMLYLDENEKVVLKNYQDMVVEGCGCR
modifications: iodinated with 125I where used as tracer
